Laboratory results from the supplement of paper PMC10567573.

B1: KRT34 (parent)
chain: PTVDLNQVLNETRSQYEALVETNR

Variants of: B1
Assay: protein stability index of a GFP-peptide fusion (GPS, HEK-293T) (PSI 1-6); higher = more stable
Conditions: c terminus: a fixed tail appended
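Note: lentivirally expressed fusions sorted by FACS into six bins by GFP to DsRed ratio, PSI derived from sequencing read proportions per bin multiplied by bin number.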

Variant	protein stability index
PTVDLKQVLNETRSQYEALVETNR [N6K]	2.98
PTVDLTQVLNETRSQYEALVETNR [N6T]	3.05
PTVDLAQVLNETRSQYEALVETNR [N6A]	2.48
PTVDLPQVLNETRSQYEALVETNR [N6P]	4.8
PTVDLEQVLNETRSQYEALVETNR [N6E]	2.56
PTVDLDQVLNETRSQYEALVETNR [N6D]	2.79
PTVDLNQVLNETRSQYEALVETRR [N23R]	4.11
PTVDLNQVLNETRSQYEALVETER [N23E]	5.16
PTVDLNQVLNETRSQYEALVETTR [N23T]	3.99
PTVDLNQVLNETRSQYEALVETYR [N23Y]	3.52
PTVDLNQVLNETRSQYEALVETKR [N23K]	3.95
PTVDLNQVLNETRSQYEALVETHR [N23H]	4.05
PTVDLNQVLNETRSQYEALVETFR [N23F]	3.71
PTVDLNQVLNETRSQYEALVETVR [N23V]	3
PTIDLNQVLNETRSQYEALVETNR [V3I]	3.7
PTMDLNQVLNETRSQYEALVETNR [V3M]	2.45
PTSDLNQVLNETRSQYEALVETNR [V3S]	4.28
PTFDLNQVLNETRSQYEALVETNR [V3F]	3.65
PTKDLNQVLNETRSQYEALVETNR [V3K]	2.76
PTHDLNQVLNETRSQYEALVETNR [V3H]	3.8
PTYDLNQVLNETRSQYEALVETNR [V3Y]	2.83
PTDDLNQVLNETRSQYEALVETNR [V3D]	4.76
PTCDLNQVLNETRSQYEALVETNR [V3C]	4.07
PTVDLNQVLNETRSQYLALVETNR [E17L]	3.85

Variant	protein stability index
PTVDLNQVLNETRSQYDALVETNR [E17D]	4.67
PTVDLNQVLNETRSQYSALVETNR [E17S]	3.85
PTVDLNQVLNEVRSQYEALVETNR [T12V]	3.04
PTVDLNQVLNEPRSQYEALVETNR [T12P]	4.12
PTVDLNQVLNETISQYEALVETNR [R13I]	2.83
PTVDLNQVLNETHSQYEALVETNR [R13H]	3.46
PTVDLNQVLNETCSQYEALVETNR [R13C]	3.57
VTVDLNQVLNETRSQYEALVETNR [P1V]	2.5
MTVDLNQVLNETRSQYEALVETNR [P1M]	3.31
WTVDLNQVLNETRSQYEALVETNR [P1W]	2.95
FTVDLNQVLNETRSQYEALVETNR [P1F]	3.22
STVDLNQVLNETRSQYEALVETNR [P1S]	3.82
PTVDLNQVLNETRSQYEALVTTNR [E21T]	3.74
PTVDLNQVLNETRSQYEALVCTNR [E21C]	3.55
PTVDLNQVLNETRSQYEALVHTNR [E21H]	3.76
PTVDLNQVLNETRSQYEALVLTNR [E21L]	3.56
PTVDLNQVLNETRSQYEALVPTNR [E21P]	4.19
PTVDLNRVLNETRSQYEALVETNR [Q7R]	3.65
PTVDLNCVLNETRSQYEALVETNR [Q7C]	3.95
PTVDLNSVLNETRSQYEALVETNR [Q7S]	3.62
PTVDLNLVLNETRSQYEALVETNR [Q7L]	4.08
PTVDLNEVLNETRSQYEALVETNR [Q7E]	3.25
PTVDLNQVLNETRSQYEAVVETNR [L19V]	4.44
PTVDLNQVLNETRSQYEACVETNR [L19C]	4.72

Variant	protein stability index
PTVDLNQVLNETRSQYEATVETNR [L19T]	4.5
PTVDLNQVLNETRSQYEARVETNR [L19R]	4.81
PTVDLNQVLNETRSQYEAPVETNR [L19P]	4.7
PTVDLNQVLNETRSQYEAMVETNR [L19M]	3.84
PTVDLNQVLNETRSQYEAIVETNR [L19I]	4.16
PTVDLNQVLNETRSDYEALVETNR [Q15D]	5.05
PTVDLNQVLNETRSKYEALVETNR [Q15K]	3.89
PTVDLNQVLNETRSAYEALVETNR [Q15A]	4
PTVDLNQVLNETRSGYEALVETNR [Q15G]	4.19
PTVDLNQVLNETRSPYEALVETNR [Q15P]	4.34
PTVDLNQVLNETRSWYEALVETNR [Q15W]	1.94
PTVDLNQVLNETRSRYEALVETNR [Q15R]	4.16
PTVDLNQVLNETRSFYEALVETNR [Q15F]	2.82
PTVDLNQVLNETRSHYEALVETNR [Q15H]	3.78
PTVDLNQVLNETRSCYEALVETNR [Q15C]	2.94
PTVDLNQVLNETRSVYEALVETNR [Q15V]	3.19
PTVDLNQVLNETRSQYEALVEENR [T22E]	4.11
PTVDLNQVLNETRSQYEALVECNR [T22C]	3.62
PTVDLNQHLNETRSQYEALVETNR [V8H]	3.52
PTVDLNQALNETRSQYEALVETNR [V8A]	3.56
PTVDLNQPLNETRSQYEALVETNR [V8P]	4.2
PTVDLNQGLNETRSQYEALVETNR [V8G]	4.2
PTVDLNQLLNETRSQYEALVETNR [V8L]	1.43
PTVDLNQVINETRSQYEALVETNR [L9I]	3.14

Variant	protein stability index
PTVDLNQVRNETRSQYEALVETNR [L9R]	4.36
PTVDLNQVGNETRSQYEALVETNR [L9G]	4.64
PTVDLNQVCNETRSQYEALVETNR [L9C]	4.45
PTVDLNQVLNETRSQYEKLVETNR [A18K]	3.16
PTVDLNQVLNETRSQYESLVETNR [A18S]	3.32
PTVDLNQVLNETRSQYEFLVETNR [A18F]	3.59
PTVDLNQVLNETRSQYEELVETNR [A18E]	3.69
PTVDLNQVLNETRSQYECLVETNR [A18C]	4.01
PTVDLNQVLNETRSQYEMLVETNR [A18M]	3.74
PTVDLNQVLNETRSQYELLVETNR [A18L]	3.66
PTVDLNQVLNETRSQYEYLVETNR [A18Y]	3.6
PTVDLNQVLNETRSQYEILVETNR [A18I]	3.7
PTVFLNQVLNETRSQYEALVETNR [D4F]	3.19
PTVWLNQVLNETRSQYEALVETNR [D4W]	2.59
PTVQLNQVLNETRSQYEALVETNR [D4Q]	4.34
PTVDLNQVLNETRLQYEALVETNR [S14L]	2.12
PTVDLNQVLNETRHQYEALVETNR [S14H]	3.32
PTVDLNQVLFETRSQYEALVETNR [N10F]	2.63
PTVDLNQVLHETRSQYEALVETNR [N10H]	3.19
PTVDLNQVLYETRSQYEALVETNR [N10Y]	2.91
PTVDLNQVLEETRSQYEALVETNR [N10E]	2.41
PTVDLNQVLNETRSQEEALVETNR [Y16E]	5.44
